# Source: publication PMC8750153
# Target: PpPex11 H2 WT peptide (Pichia pastoris)
# Assay: pull-down; biotinylated peptides on streptavidin affinity gel as bait; soluble lysate fraction of His6-tagged GFP-Pex11s as prey, 1 h at room temperature; 50 mM Tris pH 8.0, 50 mM NaCl, 5 mM EDTA; anti-GFP immunoblot
substance,measurement,value
His6-GFP-Pex11 (natural protein),fold binding against the H3 peptide,2.5 fold
